Measured values as given in publication PMC10764278.

Target: recombinant human tau(297–391) (human) (UniProt P10636)
Assay: co-sedimentation; pelletable tau: whole assembly reaction centrifuged at 400,000g, 20 °C, 15 min, pellet and supernatant quantified by SDS-PAGE; 720 min (Fig. 2b, PHF reaction)

percent of tau pelletable: 80 to 90%
Substance: recombinant human tau(297–391) (from UniProt P10636-8 297-391) (domain or fragment)
